Measured values: patent US20250361296A1 (BIOCYTOGEN PHARMACEUTICALS BEIJING, published 2025)

How the values were obtained:
[1] = target: T1, human SIGLEC2 on CHO-S-hSIGLEC2 cells (human, UniProt P20273 20-687); assay: flow cytometry, CHO-S cells expressing the target; on Percentage of Positive Cells: test concentration or dose not given here
T1 sequence: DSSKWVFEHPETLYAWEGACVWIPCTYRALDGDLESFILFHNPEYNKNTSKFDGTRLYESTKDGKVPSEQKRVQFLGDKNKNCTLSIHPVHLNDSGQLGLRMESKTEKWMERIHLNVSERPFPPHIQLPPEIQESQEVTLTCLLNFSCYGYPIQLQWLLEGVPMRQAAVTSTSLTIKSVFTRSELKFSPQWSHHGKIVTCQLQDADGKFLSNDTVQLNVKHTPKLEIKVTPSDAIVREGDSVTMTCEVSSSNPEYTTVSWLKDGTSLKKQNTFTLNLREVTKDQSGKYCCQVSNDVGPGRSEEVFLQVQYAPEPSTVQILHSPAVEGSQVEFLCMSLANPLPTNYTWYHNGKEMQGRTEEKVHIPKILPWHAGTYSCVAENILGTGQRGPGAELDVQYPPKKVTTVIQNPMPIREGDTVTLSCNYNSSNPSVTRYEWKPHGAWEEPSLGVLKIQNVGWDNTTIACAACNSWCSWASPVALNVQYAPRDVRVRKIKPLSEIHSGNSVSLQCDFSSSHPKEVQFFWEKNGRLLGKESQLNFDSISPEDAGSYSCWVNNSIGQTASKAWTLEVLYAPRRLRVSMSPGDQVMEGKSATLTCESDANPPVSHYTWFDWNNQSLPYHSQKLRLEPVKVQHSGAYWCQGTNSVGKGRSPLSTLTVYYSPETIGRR
Description: CHO-S-hSIGLEC15 cells, CHO-S-mSIGLEC15 cells, CHO-S-fasSIGLEC15 cells or CHO-S-dSIGLEC15 cells were transferred to a 96-well plate at a density of 5×10⁴ cells/well respectively. Serially diluted sample anti-SIGLEC15 antibodies were added to the 96-well plate, and incubated at 4° C. for 30 min. Then, the cells were incubated with the secondary antibody anti-hIgG-Fc-Alex Flour 647 (RL1-H) (Jackson ImmunoResearch Laboratories, Inc., 109-606-170) at 4° C. in the dark for 15 minutes before flow cytometry analysis.
Another similar experiment was performed to determine whether the anti-SIGLEC15 antibodies can bind with other SIGLEC family proteins. CHO-S-hSIGLEC1 cells (expressing hSIGLEC1, SEQ ID NO: 49)), CHO-S-hSIGLEC2 cells (expressing hSIGLEC2, SEQ ID NO: 50), CHO-S-hSIGLEC4 cells (expressing hSIGLEC4, SEQ ID NO: 51), CHO-S-hSIGLEC5 cells (expressing hSIGLEC5, SEQ ID NO: 52), CHO-S-hSIGLEC6 cells (expressing hSIGLEC6, SEQ ID NO: 53), CHO-S-hSIGLEC7 cells (expressing hSIGLEC7, SEQ ID NO: 54), CHO-S-hSIGLEC8 cells (expressing hSIGLEC8, SEQ ID NO: 55), CHO-S-hSIGLEC9 cells (expressing hSIGLEC9, SEQ ID NO: 56), CHO-S-hSIGLEC10 cells (expressing hSIGLEC10, SEQ ID NO: 57), CHO-S-hSIGLEC11 cells (expressing hSIGLEC11, SEQ ID NO: 58), CHO-S-hSIGLEC12 cells (expressing hSIGLEC12, SEQ ID NO: 59), CHO-S-hSIGLEC14 cells (expressing hSIGLEC14, SEQ ID NO: 60) or CHO-S-hSIGLEC16 cells (expressing hSIGLEC16, SEQ ID NO: 61) were used.

[2] = target: T2, human SIGLEC15 on CHO-S-hSIGLEC15 cells (human, UniProt Q6ZMC9 20-328); assay: flow cytometry (MFI) on CHO-S-hSIGLEC15 cells; antibody sample: 0 d
T2 sequence: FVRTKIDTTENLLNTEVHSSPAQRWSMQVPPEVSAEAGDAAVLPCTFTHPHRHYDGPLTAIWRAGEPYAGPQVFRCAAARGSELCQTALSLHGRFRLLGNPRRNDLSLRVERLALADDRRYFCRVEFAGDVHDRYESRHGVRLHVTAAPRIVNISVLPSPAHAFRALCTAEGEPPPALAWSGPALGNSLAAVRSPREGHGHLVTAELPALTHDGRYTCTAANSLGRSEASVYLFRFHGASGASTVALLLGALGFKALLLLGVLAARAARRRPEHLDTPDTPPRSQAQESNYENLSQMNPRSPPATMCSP
Description: (§1) In the activity detection experiment, 30 μL of CHO-S-hSIGLEC15 cells were added to the culture plate, and the antibody to be tested was added in a gradient dilution ([…]), and incubated at 4° C. for 30 min. The plate was washed with PBS, and diluted secondary antibody Anti-hIgG-Fc-Alex Flour 647 (RL1-H) (1:2000) was added, incubated at 4° C. for 30 min. The plate was washed once with PBS and the cells were resuspended for flow cytometry detection. MFI value was derived by FlowJo 7.6.1 analysis to calculate EC50.

[3] = target: T2, human SIGLEC15 on CHO-S-hSIGLEC15 cells; assay: flow cytometry (MFI) on CHO-S-hSIGLEC15 cells; antibody sample: freeze 1
Description: as §1

[4] = target: T2, human SIGLEC15 on CHO-S-hSIGLEC15 cells; assay: flow cytometry (MFI) on CHO-S-hSIGLEC15 cells; antibody sample: freeze 10
Description: as §1

B1: anti-SIGLEC15 antibody 23F4 (antibody, human IgG1, V domains shown)
VH: QVQLQQWGAGLLKPSETLSLTCAVYGGSFSGYFWSWIRQPPGKGLEWIGEINHSGSTNYNPSLKSRVTLSVDTSKNQFSLKLSSVTAADTAVYYCAREGDSSSWGNWFDPWGQGTLVTVSS
VL: EIVLTQSPGTLSLSPGERATLSCRASQSVSSSYLAWYQQKPGQAPRFLIYGASSRATGIPDRFSGSGSGTDFTLTISRLEPEDFAVYYCQQFGNSPLTFGGGTKVEIK
**Q.** With B1 as the binder, how does the “Percentage of Positive Cells” value [1] read?
**A.** The value was 1.8%.

**Q.** Does B1 bind [1]?
**A.** Result: no binding

**Q.** And the EC50 [2]?
**A.** Its EC50 is 0.129 µg/mL.

**Q.** And the EC50 [3]?
**A.** Its EC50 is 0.125 µg/mL.

**Q.** What about the EC50 [4] of the same binder?
**A.** The EC50 was 0.129 µg/mL.

B2: anti-SIGLEC15 antibody 10C9 (antibody, human IgG1, V domains shown)
VH: QVQLVQSGAEVKKPGATVKVSCKASGYTFTNYGFSWVRQAPGQGLEWMGWINTYNDNTNYAQKFQGRVTMTTDTSTSTAYMELRSLRSDDTAVYYCARDGLWFGELPHYFDYWGQGTLVTVSS
VL: DIQLTQSPLSSPVTLGQPASISCRSSQSLVNSDGETFLSWLQQRPGQPPRLLIYKISNRFSGVPDRFSGSGAGTDFTLKISRVEAEDVGVYYCMQATQFPHTFGQGTKLEIK
**Q.** What does the source list for B2?
**A.** Percentage of Positive Cells [1]: 0.3%; binding result [1]: no binding; EC50 [2]: 1.17 µg/mL; EC50 [3]: 0.62 µg/mL; EC50 [4]: 0.81 µg/mL

B3: anti-SIGLEC15 antibody 10A7 (antibody, human IgG1, V domains shown)
VH: EVQLVQSGGGLVQPGGSLRLSCAASGFTFSNYEMNWVRQAPGKGLEWISYISNSGSTIYYADSVKGRFTISRDDAKNSLYLQMNSLRAEDTAVYYCAREDYDSSGYYWFDPWGQGTPVTVSS
VL: DIQLTQSPSSVSASVGDRVTITCRASQGISSWLAWYQQKPGKAPKLLIYAASSLQSGVPSRFSGSGSGTDFTLTINSLQPEDFATYYCQQTNSFPLTFGGGTKVEIK
**Q.** Which “Percentage of Positive Cells” value [1] does the source give for B3 here?
**A.** The value was 0%.

**Q.** Does B3 bind [1]?
**A.** Result: no binding
